Results on 17 molecules are retold here after patent publication US20260151519A1 (AKTIS ONCOLOGY, published 2026).

Bridges are numbered along the chain shown (N, C = ends).

The target in the test is T1, Human Nectin-4 (human, UniProt Q96NY8 32-349, limits assumed).
T1 construct: Protein immobilised on the SPR chip; also called target protein
T1 sequence: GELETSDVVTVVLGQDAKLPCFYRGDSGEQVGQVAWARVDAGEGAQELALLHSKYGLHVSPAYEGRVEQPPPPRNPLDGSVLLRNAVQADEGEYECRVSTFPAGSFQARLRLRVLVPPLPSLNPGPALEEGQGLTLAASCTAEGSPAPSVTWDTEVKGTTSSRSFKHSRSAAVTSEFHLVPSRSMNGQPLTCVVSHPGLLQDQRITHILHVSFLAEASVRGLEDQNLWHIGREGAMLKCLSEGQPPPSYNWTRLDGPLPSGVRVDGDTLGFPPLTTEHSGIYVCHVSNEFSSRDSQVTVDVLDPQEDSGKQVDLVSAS
The experiment in a line: Table 2B (DELFIA or SPR).

B1: C22 (designed binder)
chain: Ac-CEYDEEFFAGLKRLRGTDICYYIKKKFDKVPDLCIEEILDKLGC-OH
modifications: disulfide 1-34, 20-44
With B1, the affinity, expressed as Kd, was 12.8 nM.

B2: C25 (designed binder)
chain: Ac-CEYDEEFFKGLKRLRGGDICYYIKKKFKKVPDLCIEEILDKLGC-OH
modifications: disulfide 1-34, 20-44
In the case of B2, the Kd was determined as 3.75 nM. This Kd is about 3.4-fold lower than that of the molecule before.

B3: C23 (designed binder)
chain: Ac-CEYDEEFFAGLHRLRGTDICYYIKKKFDKVPDLCIEEILDKLGC-OH
modifications: disulfide 1-34, 20-44
Molecule B3 registered a Kd of 18.5 nM. Against the preceding molecule, the Kd is about 4.9-fold higher.

B4: C26 (designed binder)
chain: Ac-CEYDEEFFEGLKRLRGGDICYYIKKKFKKVPDLCIEEILDKLGC-OH
modifications: disulfide 1-34, 20-44
Molecule B4 gave a dissociation constant Kd of 5.04 nM. This Kd is about 3.7-fold lower than that of the molecule before.

B5: C34 (designed binder)
chain: Ac-CEYDEEFFLGLKRLRGGDICYYIKKKFKKVPDLCIEEILDKLGC-OH
modifications: disulfide 1-34, 20-44
For B5, binding was characterised by a dissociation constant (Kd) of 3.17 nM.

B6: C44 (designed binder)
chain: Ac-CEYDEEFFTGLKRLRGGDICYYIKKKFKKVPDLCIEEILKKLGC-OH
modifications: disulfide 1-34, 20-44
B6: the Kd was 3.14 nM.

B7: C46 (designed binder)
chain: Ac-CEYDEKFFTGLKRLRGGDICYYIKKKFKKVPDLCIEEILDKLGC-OH
modifications: disulfide 1-34, 20-44
Take B7: the Kd stood at 2.28 nM.

B8: C30 (designed binder)
chain: Ac-CEYDEEFFEGLKKLRGGDICYYIKKKFKKVPDLCIEEILDKLGC-OH
modifications: disulfide 1-34, 20-44
B8: binding was put at a Kd of 24.9 nM.

B9: C24 (designed binder)
chain: Ac-CEYDEEFFAGLHRLRGTDICYYIKKKFPKVPDLCIEEILDKLGC-OH
modifications: disulfide 1-34, 20-44
The molecule B9 came in with an equilibrium dissociation constant (Kd) of 84.4 nM. Compared with the last molecule, the Kd is about 3.4-fold higher.

B10: C33 (designed binder)
chain: Ac-CEYDEEFFQGLKRLRGGDICYYIKKKFKKVPDLCIEEILDKLGC-OH
modifications: disulfide 1-34, 20-44
The molecule B10 yielded a dissociation constant Kd of 3.47 nM. This Kd is about 24-fold lower than that of the molecule before.

B11: C28 (designed binder)
chain: Ac-CEYDEEFFSGLKRLRGGDICYYIKKKFKKVPDLCIEEILDKLGC-OH
modifications: disulfide 1-34, 20-44
The molecule B11 returned a Kd of 5.29 nM. This Kd lies about 1.5-fold higher than the previous one.

B12: C45 (designed binder)
chain: Ac-CEYDEEFFTGLKRLRGGDICYYIKKKFKKVPDLCIEEILEKLGC-OH
modifications: disulfide 1-34, 20-44
Molecule B12 returned a Kd of 3.29 nM. Against the preceding molecule, the Kd is about 1.6-fold lower.

B13: C31 (designed binder)
chain: Ac-CEYDEEFFTGLKRLRGGDICYYIKKKFKKVPKLCIEEILDKLGC-OH
modifications: disulfide 1-34, 20-44
B13 returned a Kd of 1.31 nM. Against the preceding molecule, the Kd is about 2.5-fold lower.

B14: C27 (designed binder)
chain: Ac-CEYDEEFFDGLKRLRGGDICYYIKKKFKKVPDLCIEEILDKLGC-OH
modifications: disulfide 1-34, 20-44
In turn, B14 showed a Kd of 9.85 nM. Compared with the last molecule, the Kd is about 7.5-fold higher.

B15: C41 (designed binder)
chain: Ac-CEYDEEFFTGLKRLRGGTICYYIKKKFKKVPDLCIEEILDKLGC-OH
modifications: disulfide 1-34, 20-44
For the molecule B15, the Kd amounted to 5.6 nM.

B16: C29 (designed binder)
chain: Ac-CEYDEEFFTGLKRLRGGDICYYIKKKFKKVPDLCIEEILDKLGC-OH
modifications: disulfide 1-34, 20-44
B16 displayed a Kd of 3.91 nM.

B17: C32 (designed binder)
chain: Ac-CEYDEEFFTGLKRLRGGDICYYIKKKFKKVPELCIEEILDKLGC-OH
modifications: disulfide 1-34, 20-44
For the molecule B17, the equilibrium dissociation constant (Kd) was 3.26 nM. This Kd and that of the molecule before are within 1.5-fold of each other.

Usually Kd stands for the constant that tells how readily two partners part at equilibrium. Read a high Kd as weaker binding.
